Sequences and labels used below:
B1: Death-inducer obliterator 1, residues 263 to 321; numbered along this chain, Q9BTC0 (parent)
chain: GYDPNALYCICRQPHNNRFMICCDRCEEWFHGDCVGISEARGRLLERNGEDYICPNCTI

± gives the uncertainty stated by the source.

In the data set the parent is B1. Description: abundance fitness (aPCA) (normalised: wild type 0, dead -1); higher = more abundant; growth selection in yeast, the domain comes from the species named. The following applies: Homo sapiens.
As to N16H, the abundance fitness worked out at 0.108 ± 0.13.
In the case of N16D, the abundance fitness was -0.049 ± 0.091.
As to D3A, the abundance fitness was -0.735 ± 0.14.
As to D3P, the abundance fitness is 0.135 ± 0.11.
Regarding D3S, the abundance fitness was 0.174 ± 0.099.
With D3E the figure was 0.043 ± 0.072.
Take C9T: the abundance fitness is -0.743 ± 0.14.
Next, C9A: -0.636 ± 0.1; C9F: -0.659 ± 0.15.
As for C9I, the abundance fitness was -0.823 ± 0.33.
Take C9Q: the abundance fitness was -0.495 ± 0.089.
Next, C9G: -0.535 ± 0.083.
Next, R47N: -0.05 ± 0.2; R47Y: -0.286 ± 0.11; R47G: 0.111 ± 0.083.
Take R47K: the abundance fitness came out at 0.359 ± 0.075.
Take R47V: the abundance fitness was found to be 0.188 ± 0.09.
With F19Q the figure was 0.048 ± 0.059.
Turning to F19I, the abundance fitness was -0.028 ± 0.08.
As to F19Y, the abundance fitness came out at 0.058 ± 0.08.
With F19K the figure was -0.166 ± 0.091.
For the variant F19H, the abundance fitness amounted to 0.062 ± 0.27.
Next, C54N: -0.811 ± 0.25; C54Y: -1.24 ± 0.26; C54P: -0.821 ± 0.2.
Next, C54H: -0.245 ± 0.11; G49I: -0.016 ± 0.12.
As for G49Q, the abundance fitness was -0.145 ± 0.22.
On to G49Y, for which the abundance fitness was 0.01 ± 0.26.
Consider G49V, for which the abundance fitness is -0.199 ± 0.2.
As to G49H, the abundance fitness was determined as 0.1 ± 0.11.
With G49D, the abundance fitness was -0.299 ± 0.18.
With G49E the figure was 0.283 ± 0.13.
With G49L the figure was -0.089 ± 0.16; with G49W, -0.462 ± 0.17.
For N17H, the abundance fitness amounted to 0.008 ± 0.11.
With N17F the figure was -0.182 ± 0.082; with N17G, 0.032 ± 0.051.
With N17Y the figure was -0.086 ± 0.059; with N17I, -0.142 ± 0.11.
Next, N17Q: 0.181 ± 0.15; N17K: 0.023 ± 0.12; N17L: -0.05 ± 0.053.
Take P55D: the abundance fitness was -0.66 ± 0.38.
With P55N the figure was -0.365 ± 0.2; with P55R, 0.019 ± 0.059; with P55T, 0.083 ± 0.069.
With P55C the figure was -0.098 ± 0.092.
With P55G the figure was -0.531 ± 0.23.
As for C11G, the abundance fitness was -1.15 ± 0.2.
For C11D, the abundance fitness is -0.381 ± 0.19.
In the case of N5I, the abundance fitness is -0.242 ± 0.11.
Next, N5H: -0.433 ± 0.11.
Next, N5G: -0.273 ± 0.1.
Regarding N5Y, the abundance fitness is -0.623 ± 0.16.
With N5C the figure was -0.497 ± 0.11.
With N5P the figure was -0.796 ± 0.2; with N5S, -0.259 ± 0.069.
As to N5R, the abundance fitness is -0.211 ± 0.063.
For L7F, the abundance fitness was found to be 0.042 ± 0.083.
With L7E the figure was 0.032 ± 0.081.
With L7Y the figure was 0.002 ± 0.11.
Consider L7P, for which the abundance fitness was -0.119 ± 0.076.
L7N: the abundance fitness came to 0.009 ± 0.098.
In the case of L7H, the abundance fitness was determined as 0.119 ± 0.079.
Consider P14N, for which the abundance fitness was -0.003 ± 0.073.
For P14H, the abundance fitness is -0.04 ± 0.085.
P14D: the abundance fitness is -0.284 ± 0.079.
Next, P14Y: 0.111 ± 0.087; P14Q: 0.079 ± 0.11.
With P14S the figure was 0.035 ± 0.056; with G36Q, 0.013 ± 0.084; with G36W, -0.469 ± 0.1.
Regarding G36R, the abundance fitness is -0.072 ± 0.047.
Next, G36I: -0.15 ± 0.096; G36D: 0.038 ± 0.082.
On to R25K, for which the abundance fitness stood at 0.118 ± 0.065.
With R25I the figure was -0.197 ± 0.11.
Next, E50M: -0.157 ± 0.11.
Next, E50D: -0.005 ± 0.13; E50W: -0.356 ± 0.2.
Take E50V: the abundance fitness is -0.041 ± 0.11.
Next, E50S: -0.192 ± 0.094; E50I: -0.14 ± 0.12.
For the variant A6G, the abundance fitness was -0.306 ± 0.058.
Next, A6I: -0.279 ± 0.12; A6V: -0.066 ± 0.064.
Next, A6D: -0.434 ± 0.12; A6F: -0.198 ± 0.17; H15P: -0.126 ± 0.079.
For H15W, the abundance fitness was -0.037 ± 0.063.
Next, H15E: 0.029 ± 0.094; H15L: 0.058 ± 0.049; H15K: -0.121 ± 0.075.
With Q13R the figure was -0.085 ± 0.072; with Q13Y, -0.161 ± 0.12; with Q13V, -0.068 ± 0.041.
As to Q13S, the abundance fitness is -0.136 ± 0.052.
Next, Q13E: 0.072 ± 0.07; Q13A: 0.183 ± 0.07; Q13M: 0.149 ± 0.055.
As to Q13L, the abundance fitness is -0.089 ± 0.05.
Next, S38R: -0.13 ± 0.056; S38N: -0.245 ± 0.34.
With S38P the figure was 0.001 ± 0.065.
As for S38T, the abundance fitness was determined as 0.027 ± 0.071.
Next, S38Q: -0.251 ± 0.13; S38E: -0.146 ± 0.13.
Take S38G: the abundance fitness was 0.03 ± 0.1.
Next, S38Y: -0.193 ± 0.1; S38C: -0.166 ± 0.16; A40M: 0.004 ± 0.082.
With A40L the figure was 0.043 ± 0.05; with A40Q, -0.315 ± 0.14.
With C23G the figure was -0.864 ± 0.1.
For the variant C23M, the abundance fitness is -1.26 ± 0.28.
With C23H the figure was -1 ± 0.24; with C23W, -0.942 ± 0.27.
With C23E the figure was -0.966 ± 0.14.
C23D: the abundance fitness was -0.532 ± 0.22.
With I53A, the abundance fitness was found to be 0.059 ± 0.089.
As for I53H, the abundance fitness is -0.093 ± 0.13.
Next, I53G: -0.136 ± 0.064; I53Q: -0.03 ± 0.15.
Take I53C: the abundance fitness worked out at 0.063 ± 0.11.
For the variant R12H, the abundance fitness stood at 0.019 ± 0.095.
R12C: the abundance fitness is -0.216 ± 0.15.
For the variant R12F, the abundance fitness is -0.207 ± 0.081.
With R12W the figure was -0.284 ± 0.11; with R12V, -0.36 ± 0.063.
On to M20A, for which the abundance fitness is -0.343 ± 0.1.
As to M20E, the abundance fitness is -0.403 ± 0.19.
With M20D the figure was -0.559 ± 0.28; with M20Q, -0.077 ± 0.11; with M20I, 0.045 ± 0.073.
For the variant F30Y, the abundance fitness was -0.041 ± 0.093.
With F30K the figure was -0.349 ± 0.065.
As for F30I, the abundance fitness is -0.289 ± 0.1.
As to F30Q, the abundance fitness is -0.471 ± 0.15.
Next, F30P: -0.711 ± 0.17.
Next, E27R: -0.071 ± 0.047; E27G: -0.074 ± 0.072.
Take W29V: the abundance fitness came to 0.252 ± 0.056.
For W29I, the abundance fitness is 0.225 ± 0.064.
Next, W29M: 0.176 ± 0.083; W29C: 0.045 ± 0.084; W29A: 0.161 ± 0.056.
For W29G, the abundance fitness was -0.02 ± 0.067.
On to W29L, for which the abundance fitness worked out at 0.215 ± 0.049.
For W29Y, the abundance fitness worked out at 0.064 ± 0.12.
In the case of P4Y, the abundance fitness is -0.258 ± 0.19.
Next, P4W: -0.086 ± 0.085; P4Q: -0.043 ± 0.35; P4V: -0.183 ± 0.094.
With P4K the figure was 0.297 ± 0.22; with P4A, -0.075 ± 0.083; with P4M, 0.021 ± 0.059.
Next, P4N: -0.036 ± 0.12; D24T: -0.032 ± 0.076; D24G: 0.166 ± 0.051.
In the case of D24M, the abundance fitness turned out to be 0.073 ± 0.068.
As to D24L, the abundance fitness was -0.176 ± 0.059.
Next, D51E: 0.029 ± 0.1.
Regarding D51N, the abundance fitness is -0.18 ± 0.12.
Consider D51Q, for which the abundance fitness was found to be 0.135 ± 0.13.
As for D51M, the abundance fitness was -0.367 ± 0.15.
Next, D51R: 0.013 ± 0.088.

(Values after the Human Domainome abundance scans (Beltran et al. 2025).)
